From publication PMC7888556 (Biochemical and biophysical research communications, 2017)

Target: T1, CEP192-WT (residues 507-1065 of human CEP192, C-terminal V5 and 6XHis tags) (human, UniProt Q8TEP8 507-1065)
T1 sequence (looked up): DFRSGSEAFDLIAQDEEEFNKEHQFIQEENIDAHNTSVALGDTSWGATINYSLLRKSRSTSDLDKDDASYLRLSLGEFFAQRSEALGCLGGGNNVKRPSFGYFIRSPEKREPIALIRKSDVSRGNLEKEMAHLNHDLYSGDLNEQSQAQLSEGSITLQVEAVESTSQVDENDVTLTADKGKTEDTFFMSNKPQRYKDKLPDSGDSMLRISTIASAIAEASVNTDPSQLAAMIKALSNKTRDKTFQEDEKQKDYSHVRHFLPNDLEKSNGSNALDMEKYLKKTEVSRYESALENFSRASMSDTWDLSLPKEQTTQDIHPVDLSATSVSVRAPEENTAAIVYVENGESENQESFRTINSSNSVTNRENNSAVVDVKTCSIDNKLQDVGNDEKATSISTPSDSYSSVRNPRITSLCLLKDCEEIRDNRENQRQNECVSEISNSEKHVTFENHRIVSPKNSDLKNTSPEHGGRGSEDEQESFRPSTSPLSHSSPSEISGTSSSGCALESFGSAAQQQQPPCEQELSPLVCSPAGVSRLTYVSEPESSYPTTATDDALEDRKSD
Test: pull-down

- binding result: binds
B1: Human PP1β (type one protein phosphatase, purified) (enzyme, UniProt P62140 1-327, looked up)
chain: MADGELNVDSLITRLLEVRGCRPGKIVQMTEAEVRGLCIKSREIFLSQPILLELEAPLKICGDIHGQYTDLLRLFEYGGFPPEANYLFLGDYVDRGKQSLETICLLLAYKIKYPENFFLLRGNHECASINRIYGFYDECKRRFNIKLWKTFTDCFNCLPIAAIVDEKIFCCHGGLSPDLQSMEQIRRIMRPTDVPDTGLLCDLLWSDPDKDVQGWGENDRGVSFTFGADVVSKFLNRHDLDLICRAHQVVEDGYEFFAKRQLVTLFSAPNYCGEFDNAGGMMSVDETLMCSFQILKPSEKKAKYQYGGLNSGRPVTPPRTANPPKKR
